Experimental data reported in patent publication US20220372147A1 (UNIVERSIT T STUTTGART, published 2022).
Read-outs that look alike come from different tables or passages of the source.

B1: tetravalent and bispecific eIg-Fab molecule targeting HER3 and EGFR (bispecific antibody)
light 1: QAGLTQPPAVSVAPGQTASITCGRDNIGSRSVHWYQQKPGQAPVLVVYDDSDRPAGIPERFSGSNYENTATLTISRVEAGDEADYYCQVWGITSDHVVFGGGTKLTVLGTDFTPPTVKILQSSSDGGGHFPPTIQLLCLVSGYTPGTIQITWLEDGQVMDVDLSTASTTQEGELASTQSELTLSQKHWLSDRTYTCQVTYQGHTFEDSTKKCADSN
light 2: DIQLTQSPSFLSASVGDRVTITCRASQSIGTNIHWYQQKPGKAPKLLIKYASESISGVPSRFSGSGSGTEFTLTISSLQPEDFATYYCQQNNNWPTTFGAGTKLEIKRTVAAPSVFIFPPSDEQLKSGTASVVCLLNNFYPREAKVQWKVDNALQSGNSQESVTEQDSKDSTYSLSSTLTLSKADYEKHKVYACEVTHQGLSSPVTKSFNRGEC
heavy: not shown
notes: Homodimerizing Fc; also called eIg-Fab EGFRxHER3
B2: bivalent and bispecific Fab-eFab molecule targeting HER3 and EGFR (bispecific antibody)
light 1: B1 light 1
light 2: B1 light 2
heavy: EVQLVESGGGLVQPGGSLRLSCAASGFSLTNYGVHWVRQAPGKGLEWLGVIWSGGNTDYNTPFTSRFTISRDNSKNTLYLQMNSLRAEDTAVYYCARALTYYDYEFAYWGQGTTVTVSSASTKGPSVFPLAPSSKSTSGGTAALGCLVKDYFPEPVTVSWNSGALTSGVHTFPAVLQSSGLYSLSSVVTVPSSSLGTQTYICNVNHKPSNTKVDKKVEPKSCGGSGGGGSGGQVQLQQSGPGLVKPSQTLSLTCAISGDSVSSNRAAWNWIRQSPSRGLEWLGRTYYRSKWYNDYAQSLKSRITINPDTPKNQFSLQLNSVTPEDTAVYYCARDGQLGLDALDIWGQGTMVTVSSDFTPPTVKILQSSCDGGGHFPPTIQLLCLVSGYTPGTINITWLEDGQVMDVDLSTASTTQEGELASTQSELTLSQKHWLSDRTYTCQVTYQGHTFEDSTKKSADSNAAAHHHHHH
notes: No Fc region; one site for EGFR and one for HER3; C-terminal His-tag on the heavy chain; also called Fab-eFab EGFRxHER3
B3: bispecific and bivalent anti-CD3 x anti-HER3 eIgG (bispecific antibody)
light 1: QAGLTQPPAVSVAPGQTASITCGRDNIGSRSVHWYQQKPGQAPVLVVYDDSDRPAGIPERFSGSNYENTATLTISRVEAGDEADYYCQVWGITSDHVVFGGGTKLTVLGQPKAAPSVTLFPPSSEELQANKATLVCLISDFYPGAVTVAWKADSSPVKAGVETTTPSKQSNNKYAASSYLSLTPEQWKSHRSYSCQVTHEGSTVEKTVAPTECS
heavy 1: not shown
heavy 2: not shown
light 2: not shown
notes: One site for HER3 (3-43), one for CD3 (huU3, humanized UCHT1); also called eIg1; eIgl

What was measured:
[1] = target: T1, FcεRI Fc fusion protein comprising the extracellular region of FcεRI (human, UniProt P12319 26-205); test: ELISA, immobilized FcεRI-Fc, anti-human Fab detection
T1 construct: extracellular domain; also called FcεRT; FccRT; not shown: Fc part
T1 sequence (looked up): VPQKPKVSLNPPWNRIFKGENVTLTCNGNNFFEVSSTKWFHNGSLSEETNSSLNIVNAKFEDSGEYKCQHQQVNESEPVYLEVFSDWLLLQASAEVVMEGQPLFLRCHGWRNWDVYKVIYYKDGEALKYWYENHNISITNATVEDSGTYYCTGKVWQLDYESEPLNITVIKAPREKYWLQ

[2] = target: T2, His-tagged HER3 protein, extracellular domain (ECD) of HER3 (aa 21-643) (UniProt P21860 21-643); test: ELISA, immobilized HER3-His, anti-human Fc-HRP detection
T2 construct: range 21-643; also called HER3-His; not shown: His-tag

EGFR-Fc = target: T3, EGFR-Fc (UniProt P00533 25-645); test: bifunctional sandwich ELISA: immobilized EGFR-Fc, titrated eIg-Fab, then HER3-His as second antigen detected with anti-His-HRP
T3 construct: also called immobilized EGFR-Fc antigen; not shown: Fc part

[3] = target: EGFR (immobilized control antigen of Example 11) (UniProt P00533 25-645, limits assumed); test: ELISA at 50 nM, immobilized EGFR, anti-human Fab detection
[4] = target: T2, His-tagged HER3 protein, extracellular …; test: ELISA, immobilized HER3-His, anti-human Fab-HRP detection
EGFR-moFc = target: T4, EGFR-moFc (UniProt P00533 25-645); test: bifunctional sandwich ELISA: immobilized HER3-His, EGFR-moFc detected with anti-mouse Fc-HRP
T4 construct: also called EGFR-moFc protein (second soluble antigen); not shown: murine Fc part

[5] = target: T2, His-tagged HER3 protein, extracellular …; test: bifunctional sandwich ELISA: immobilized HER3-His, titrated Fab-eFab, then EGFR-moFc as second antigen detected with anti-mouse Fc-HRP
[6] = target: T5, HER3 on HER3-expressing cancer cells (LIM1215, BT474) (UniProt P21860 20-1342, limits assumed); test: cell-based or functional assay
[7] = target: T2, His-tagged HER3 protein, extracellular …; test: ELISA, immobilized HER3-His, anti-human Fc-HRP detection; remark: listed apart in the source
[8] = target: T5, HER3 on HER3-expressing cancer cells …; test: flow cytometry on HER3-expressing LIM1215 and BT474 cells
[9] = target: T6, CD3 on CD3-expressing Jurkat cells (human, UniProt P07766 23-207); test: flow cytometry on CD3-expressing Jurkat cells, PE anti-human Fc
T6 construct: whole, on cells

[10] = target: T5, HER3 on HER3-expressing cancer cells …; test: flow cytometry on HER3-expressing LIM1215 cells, PE anti-human Fc
[11] = target: T6, CD3 on CD3-expressing Jurkat cells; test: flow cytometry on CD3-expressing Jurkat cells, PE anti-human Fc; remark: listed apart in the source
[12] = target: T5, HER3 on HER3-expressing cancer cells …; test: flow cytometry on HER3-expressing BT474 cells, PE anti-human Fc
[13] = target: T5, HER3 on HER3-expressing cancer cells …; test: flow cytometry on HER3-expressing LIM1215 cells, PE anti-human Fc; remark: listed apart in the source

T6 sequence (P07766 23-207): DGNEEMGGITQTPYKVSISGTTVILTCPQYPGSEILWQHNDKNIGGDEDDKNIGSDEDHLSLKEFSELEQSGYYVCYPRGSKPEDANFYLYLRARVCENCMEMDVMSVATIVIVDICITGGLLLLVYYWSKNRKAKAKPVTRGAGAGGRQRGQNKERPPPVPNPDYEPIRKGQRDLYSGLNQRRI

Row | Binder | binding result [1] | EC50 [2] | EC50 (EGFR-Fc) | binding result [3] | EC50 [4] | binding result (EGFR-moFc) | EC50 [5] | EC50 value in cell killing (PBMC-mediated cytotoxicity on BT-474 cells, crystal violet) [6] | EC50 value in cell killing (PBMC-mediated cytotoxicity on LIM1215 cells, crystal violet) [6] | EC50 [7] | factor weaker binding than the bispecific, trivalent eIg-Fab molecules [8] | EC50 [9] | EC50 [10] | EC50 [11] | EC50 [12] | EC50 [13]
1 | B1 | no binding (tested: 50 nM) | 3.3 nM | 0.23 nM | – | – | – | – | – | – | – | – | – | – | – | – | –
2 | B2 | no binding (tested: 50 nM) | – | – | binds | 3.9 nM | binds | 1.4 nM | – | – | – | – | – | – | – | – | –
3 | B3 | no binding (tested: 50 nM) | – | – | – | – | – | – | 3.8 nM | 5.8 nM | 2.1 nM | ≤ 50 fold | 11.9 nM | 0.4 nM | 5.1 nM | 4.8 nM | 4 nM
